The target of the assay is poliovirus 3AsolBC protein (poliovirus). Briefly: SEC. A general note: SEC sorts molecules by how far they enter the pores of the column.

Where “and” joins values, the source holds several entries; their conditions need not be identical. Equal entries are not always repeated.

Broadly, the Kd is a measure of binding affinity in units of concentration.

For “poliovirus 3AsolBC protein (natural protein)”, the Kd lay within 20 to 60 µM; the percent of the total absorbance in the leading-edge (dimer) peak was 10% and 30%.

(Values after publication PMC10590986.)
